The chains are these.
B1: Phosphotransferase RcsD (Escherichia coli (strain K12)), P39838 (parent)
chain: MRQKETTATTRFSLLPGSITRFFLLLIIVLLVTMGVMVQSAVNAWLKDKSYQIVDITHAIQKRVDNWRYVTWQIYDNIAATTSPSSGEGLQETRLKQDVYYLEKPRRKTEALIFGSHDNSTLEMTQRMSTYLDTLWGAENVPWSMYYLNGQDNSLVLISTLPLKDLTSGFKESTVSDIVDSRRAEMLQQANALDERESFSNMRRLAWQNGHYFTLRTTFNQPGHLATVVAFDLPINDLIPPGMPLDSFRLEPDATATGNNDNEKEGTDSVSIHFNSTKIEISSALNSTDMRLVWQVPYGTLLLDTLQNILLPLLLNIGLLALALFGYTTFRHFSSRSTENVPSTAVNNELRILRAINEEIVSLLPLGLLVHDQESNRTVISNKIADHLLPHLNLQNITTMAEQHQGIIQATINNELYEIRMFRSQVAPRTQIFIIRDQDREVLVNKKLKQAQRLYEKNQQGRMIFMKNIGDALKEPAQSLAESAAKLNAPESKQLANQADVLVRLVDEIQLANMLADDSWKSETVLFSVQDLIDEVVPSVLPAIKRKGLQLLINNHLKAHDMRRGDRDALRRILLLLMQYAVTSTQLGKITLEVDQDESSEDRLTFRILDTGEGVSIHEMDNLHFPFINQTQNDRYGKADPLAFWLSDQLARKLGGHLNIKTRDGLGTRYSVHIKMLAADPEVEEEEERLLDDVCVMVDVTSAEIRNIVTRQLENWGATCITPDERLISQDYDIFLTDNPSNLTASGLLLSDDESGVREIGPGQLCVNFNMSNAMQEAVLQLIEVQLAQEEVTESPLGGDENAQLHASGYYALFVDTVPDDVKRLYTEAATSDFAALAQTAHRLKGVFAMLNLVPGKQLCETLEHLIREKDVPGIEKYISDIDSYVKSLL
partner: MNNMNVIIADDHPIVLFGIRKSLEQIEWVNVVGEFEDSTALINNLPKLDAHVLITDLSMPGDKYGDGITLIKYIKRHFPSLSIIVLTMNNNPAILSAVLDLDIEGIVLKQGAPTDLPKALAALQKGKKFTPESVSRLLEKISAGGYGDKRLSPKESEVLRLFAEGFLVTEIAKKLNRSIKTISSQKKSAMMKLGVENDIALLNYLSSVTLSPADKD

The values that follow come from IntAct's records for PubMed 21481780.

Variants of B1 are the subject of this assay. Conditions: with rcsb_ecoli rcsB.
For the variant N715A;Q776A;L780A, the “effect of a mutation on the interaction” value is “decreasing interaction”.
